Consider 12 molecules from patent US20210047420A1 (TUSK THERAPEUTICS, published 2021).

Read-outs that look alike come from different tables or passages of the source.

Experiment [1] has as its target T1, recombinant human CD25 his tagged (UniProt P01589 22-240).
T1 chain: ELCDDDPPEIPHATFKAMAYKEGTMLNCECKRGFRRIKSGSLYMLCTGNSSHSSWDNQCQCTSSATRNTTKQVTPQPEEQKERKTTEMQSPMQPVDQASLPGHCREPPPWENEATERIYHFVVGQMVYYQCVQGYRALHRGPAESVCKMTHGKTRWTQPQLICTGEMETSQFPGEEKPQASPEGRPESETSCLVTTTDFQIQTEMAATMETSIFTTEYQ
The experiment can be described thus: SPR (Biacore 2000). On the technique in general: SPR reads the build-up and loss of mass on a sensor chip optically.

The target in experiment [2] is T2, recombinant human CD25 his tagged (human, UniProt P01589 22-240, limits assumed).
T2 construct: also called rhCD25 his tagged; rhCD25; not shown: his tag
T2 sequence: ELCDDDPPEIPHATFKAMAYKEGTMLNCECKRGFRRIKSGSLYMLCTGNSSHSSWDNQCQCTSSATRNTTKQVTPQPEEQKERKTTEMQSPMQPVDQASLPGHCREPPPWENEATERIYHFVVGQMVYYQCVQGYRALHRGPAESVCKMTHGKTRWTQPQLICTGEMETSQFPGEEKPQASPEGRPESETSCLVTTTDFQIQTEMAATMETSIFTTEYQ
The experiment can be described thus: Octet sequential binding, rhCD25 his tagged on Ni-NTA biosensors, first antibody. For orientation: Biolayer interferometry detects binding as a change in optical thickness at a sensor tip.

The target of experiment [3] is T1, recombinant human CD25 his tagged. Nature of the experiment: SPR (Biacore 2000).
Experiment [4] shares this target. The experiment can be described thus: SPR (Biacore 2000).
Experiment [5] shares this target. The experiment can be described thus: SPR (Biacore 2000).

B1: Antibody 10 (antibody, human IgG1, V domains shown)
VH: QVQLVESGGGVVQPGGSLRLSCAVSGFSLTSYGIQWVRQAPGKGLEWVSVIWAGGSTNYNSALMSRFTISKDNSKSTLYLQMNSLRAEDTAVYYCARAYGYDGSWLAYWGQGTLVTVSS
VL: QIVLTQSPATLSLSPGERATLSCRASSSVSYMHWYQQKPGQAPRPLIFATSNLASGIPARFSGSGSGTDYTLTISSLEPEDFAVYYCQQWSSNPPTFGGGTKLEIK
notes: also called Ab10; Antibody 10-hIgG1
By Kd is commonly meant the free concentration of one partner at which half of the binding sites on the other are occupied at equilibrium, for simple one-to-one binding. Regarding B1, the Kd in experiment [1] is 7.6 nM. Moreover, the binding result in experiment [2] is recorded as “binds”.

B2: Antibody 9 (antibody, V domains shown)
VH: QVQLVESGGGVVQPGGSLRLSCAVSGFSLTSYGIQWVRQAPGKGLEWVSVIWAGGSTNYNSALMSRFTISKDNSKSTLYLQMNSLRAEDTAVYYCARAYGYDGSWLAYWGQGTLVTVSS
VL: EIVLTQSPATLSLSPGERATLSCRASSSVSYMHWYQQKPGQAPRPLIFATSNLASGIPARFSGSGSGTDFTLTISSLEPEDFAVYYCQQWSSNPPTFGGGTKLEIK
Take B2: the Kd in experiment [3] was 8.8 nM.

B3: Antibody 7 (antibody, V domains shown)
VH: QVQLQESGPGLVKPSETLSLTCTVSGFSLTSYGIQWVRQPPGKGLEWIGVIWAGGSTNYNSALMSRVTISKDNSKSQFSLKLSSVTAADTAVYYCARAYGYDGSWLAYWGQGTLVTVSS
VL: DIQMTQSPSSLSASVGDRVTITCRASSSVSYMHWYQQKPGKAPKPLIFATSNLASGVPSRFSGSGSGTDYTLTISSLQPEDFATYYCQQWSSNPPTFGGGTKLEIK
On to B3, for which, in experiment [3], the Kd is 2.1 nM.

B4: Antibody 11 (antibody, V domains shown)
VH: QVQLVESGGGVVQPGGSLRLSCAVSGFSLTSYGIQWVRQAPGKGLEWVSVIWAGGSTNYNSALMSRFTISKDNSKSTLYLQMNSLRAEDTAVYYCARAYGYDGSWLAYWGQGTLVTVSS
VL: DIQMTQSPSSLSASVGDRVTITCRASSSVSYMHWYQQKPGKAPKPLIFATSNLASGVPSRFSGSGSGTDYTLTISSLQPEDFATYYCQQWSSNPPTFGGGTKLEIK
On to B4, for which the Kd in experiment [1] was 10.2 nM.

B5: Antibody 4 (antibody, V domains shown)
VH: QVQLQESGPGLVKPSETLSLTCTVSGFSLTSYGIQWIRQPPGKGLEWIGVIWAGGSTNYNSALMSRVTISKDNSKNQFSLKLSSVTAADTAVYYCARAYGYDGSWLAYWGQGTLVTVSS
VL: QIQLTQSPSSLSASVGDRVTITCRASSSVSYMHWYQQKPGKSPKPLIFATSNLASGVPSRFSGSGSGTDYTLTISSLQPEDFATYYCQQWSSNPPTFGGGTKLEIK
On to B5, for which, in experiment [4], the Kd amounted to 1.1 nM.

B6: Antibody 3 (antibody, V domains shown)
VH: QVQLQESGPGLVKPSETLSLTCTVSGFSLTSYGIQWIRQPPGKGLEWIGVIWAGGSTNYNSALMSRVTISKDNSKNQFSLKLSSVTAADTAVYYCARAYGYDGSWLAYWGQGTLVTVSS
VL: DIQMTQSPSSLSASVGDRVTITCRASSSVSYMHWYQQKPGKAPKPLIFATSNLASGVPSRFSGSGSGTDYTLTISSLQPEDFATYYCQQWSSNPPTFGGGTKLEIK
Turning to B6, the Kd in experiment [5] was 0.3 nM.

B7: Antibody 5 (antibody, V domains shown)
VH: QVQLQESGPGLVKPSETLSLTCTVSGFSLTSYGIQWVRQPPGKGLEWIGVIWAGGSTNYNSALMSRVTISKDNSKSQFSLKLSSVTAADTAVYYCARAYGYDGSWLAYWGQGTLVTVSS
VL: EIVLTQSPATLSLSPGERATLSCRASSSVSYMHWYQQKPGQAPRPLIFATSNLASGIPARFSGSGSGTDFTLTISSLEPEDFAVYYCQQWSSNPPTFGGGTKLEIK
B7: in experiment [4], the Kd came to 2.6 nM.

B8: Antibody 12 (antibody, V domains shown)
VH: QVQLVESGGGVVQPGGSLRLSCAVSGFSLTSYGIQWVRQAPGKGLEWVSVIWAGGSTNYNSALMSRFTISKDNSKSTLYLQMNSLRAEDTAVYYCARAYGYDGSWLAYWGQGTLVTVSS
VL: QIQLTQSPSSLSASVGDRVTITCRASSSVSYMHWYQQKPGKSPKPLIFATSNLASGVPSRFSGSGSGTDYTLTISSLQPEDFATYYCQQWSSNPPTFGGGTKLEIK
Turning to B8, in experiment [1], the Kd came out at 6.9 nM.

B9: Antibody 6 (antibody, V domains shown)
VH: QVQLQESGPGLVKPSETLSLTCTVSGFSLTSYGIQWVRQPPGKGLEWIGVIWAGGSTNYNSALMSRVTISKDNSKSQFSLKLSSVTAADTAVYYCARAYGYDGSWLAYWGQGTLVTVSS
VL: QIVLTQSPATLSLSPGERATLSCRASSSVSYMHWYQQKPGQAPRPLIFATSNLASGIPARFSGSGSGTDYTLTISSLEPEDFAVYYCQQWSSNPPTFGGGTKLEIK
For B9, the Kd in experiment [4] was determined as 2.9 nM.

B10: Antibody 8 (antibody, V domains shown)
VH: QVQLQESGPGLVKPSETLSLTCTVSGFSLTSYGIQWVRQPPGKGLEWIGVIWAGGSTNYNSALMSRVTISKDNSKSQFSLKLSSVTAADTAVYYCARAYGYDGSWLAYWGQGTLVTVSS
VL: QIQLTQSPSSLSASVGDRVTITCRASSSVSYMHWYQQKPGKSPKPLIFATSNLASGVPSRFSGSGSGTDYTLTISSLQPEDFATYYCQQWSSNPPTFGGGTKLEIK
For B10, the Kd in experiment [3] was 1.7 nM.

B11: Antibody 1 (antibody, V domains shown)
VH: QVQLQESGPGLVKPSETLSLTCTVSGFSLTSYGIQWIRQPPGKGLEWIGVIWAGGSTNYNSALMSRVTISKDNSKNQFSLKLSSVTAADTAVYYCARAYGYDGSWLAYWGQGTLVTVSS
VL: EIVLTQSPATLSLSPGERATLSCRASSSVSYMHWYQQKPGQAPRPLIFATSNLASGIPARFSGSGSGTDFTLTISSLEPEDFAVYYCQQWSSNPPTFGGGTKLEIK
Turning to B11, in experiment [5], the dissociation constant (Kd) came out at 1.2 nM.

B12: Antibody 2 (antibody, V domains shown)
VH: QVQLQESGPGLVKPSETLSLTCTVSGFSLTSYGIQWIRQPPGKGLEWIGVIWAGGSTNYNSALMSRVTISKDNSKNQFSLKLSSVTAADTAVYYCARAYGYDGSWLAYWGQGTLVTVSS
VL: QIVLTQSPATLSLSPGERATLSCRASSSVSYMHWYQQKPGQAPRPLIFATSNLASGIPARFSGSGSGTDYTLTISSLEPEDFAVYYCQQWSSNPPTFGGGTKLEIK
With B12, in experiment [5], the Kd is 4.8 nM.
